This passage reports stoichiometry N results from article PMC10937716.

What all share (test): cryo-EM structure; purified BAV virions (full and partial particles) in 1x PBS pH 7.4; icosahedral reconstruction and local reconstructions of the fivefold vertex, of RdRp and of VP9
Test [1] addresses Banna virus (BAV) strain YN15-126-01 VP4, membrane penetration protein (spike) (Banna virus strain YN15-126-01).
Test [2] has as its target Banna virus (BAV) strain YN15-126-01 VP8, outer capsid protein (Banna virus strain YN15-126-01).
Test [3] has as its target Banna virus (BAV) strain YN15-126-01 VP9, receptor binding protein (spike) (Banna virus strain YN15-126-01).

In test [1], “Banna virus (BAV) strain YN15-126-01 VP4, membrane penetration protein (spike) (natural protein)” yielded a stoichiometry N of 3. “Banna virus (BAV) strain YN15-126-01 VP8, outer capsid protein (natural protein)”: the stoichiometry N in test [2] is 3. For the substance “Banna virus (BAV) strain YN15-126-01 VP9, receptor binding protein (spike) (natural protein)”, the stoichiometry N in test [3] was found to be 3.

What is called stoichiometry N is a count of units in the complex or per binding partner.
